# Measurements as given in patent US20040018971A1 (published 2004).
# Target: T1, HLA-DR3 (DRB1*0301) (human)
# T1 construct: purified HLA class II molecule
# Assay: competition binding assay, purified HLA, 125I-labelled probe peptide, gel filtration
row,Binder,relative binding ratio
1,RSLLEDDDMGDLVDA (also called Her2/neu.1006) [HER2/neu peptide RSLLEDDDMGDLVDA (position 1006)],0.008 ratio to standard peptide
2,IWKFPDEEGACQPCP (also called Her2/neu.613) [HER2/neu peptide IWKFPDEEGACQPCP (position 613)],-0.0027 ratio to standard peptide
3,ETEYHADGGKVPIKW (also called Her2/neu.874) [HER2/neu peptide ETEYHADGGKVPIKW (position 874)],-0.0027 ratio to standard peptide
4,DTILWKDIFHKNNQL (also called Her2/neu.165) [HER2/neu peptide DTILWKDIFHKNNQL (position 165)],-0.0027 ratio to standard peptide
5,KGPLPTDCCHEQCAA (also called Her2/neu.228) [HER2/neu peptide KGPLPTDCCHEQCAA (position 228)],-0.0027 ratio to standard peptide
6,VTCFGPEADQCVACA (also called Her2/neu.574) [HER2/neu peptide VTCFGPEADQCVACA (position 574)],-0.0027 ratio to standard peptide
7,VHTVPWDQLFRNPHQ (also called Her2/neu.477) [HER2/neu peptide VHTVPWDQLFRNPHQ (position 477)],0.022 ratio to standard peptide
8,SDVFDGDLGMGAAKG (also called Her2/neu.1083) [HER2/neu peptide SDVFDGDLGMGAAKG (position 1083)],-0.0025 ratio to standard peptide
9,KNGVVKDVFAFGGAV (also called Her2/neu.1177) [HER2/neu peptide KNGVVKDVFAFGGAV (position 1177)],-0.0025 ratio to standard peptide
10,AIKVLRENTSPKANK (also called Her2/neu.751) [HER2/neu peptide AIKVLRENTSPKANK (position 751)],0.0075 ratio to standard peptide
11,SLSFLQDIQEVQGYV (also called Her2/neu.70) [HER2/neu peptide SLSFLQDIQEVQGYV (position 70)],0.052 ratio to standard peptide
12,YNYLSTDVGSCTLVC (also called Her2/neu.301) [HER2/neu peptide YNYLSTDVGSCTLVC (position 301)],0.0059 ratio to standard peptide
13,DLTLGLEPSEEEAPR (also called Her2/neu.1058) [HER2/neu peptide DLTLGLEPSEEEAPR (position 1058)],-0.0025 ratio to standard peptide
14,TAPLQPEQLQVFETL (also called Her2/neu.389) [HER2/neu peptide TAPLQPEQLQVFETL (position 389)],0.0023 ratio to standard peptide
15,MRRLLQETELVEPLT (also called Her2/neu.687) [HER2/neu peptide MRRLLQETELVEPLT (position 687)],-0.0027 ratio to standard peptide
16,PSGVKPDLSYMPIWK (also called Her2/neu.601) [HER2/neu peptide PSGVKPDLSYMPIWK (position 601)],-0.0027 ratio to standard peptide
17,GDLVDAEEYLVPQQG (also called Her2/neu.1015) [HER2/neu peptide GDLVDAEEYLVPQQG (position 1015)],0.025 ratio to standard peptide
18,NQEVTAEDGTQRCEK (also called Her2/neu.319) [HER2/neu peptide NQEVTAEDGTQRCEK (position 319)],-0.0027 ratio to standard peptide
19,FVVIQNEDLGPASPL (also called Her2/neu.986) [HER2/neu peptide FVVIQNEDLGPASPL (position 986)],-0.0025 ratio to standard peptide
20,LVTYNTDTFESMPNP (also called Her2/neu.271) [HER2/neu peptide LVTYNTDTFESMPNP (position 271)],-0.0027 ratio to standard peptide
21,SLAFLPESFDGDPAS (also called Her2/neu.373) [HER2/neu peptide SLAFLPESFDGDPAS (position 373)],-0.0027 ratio to standard peptide
22,DNLYYWDQDPPERGA (also called Her2/neu.1218) [HER2/neu peptide DNLYYWDQDPPERGA (position 1218)],-0.0025 ratio to standard peptide
23,NKEILDEAYVMAGVG (also called Her2/neu.764) [HER2/neu peptide NKEILDEAYVMAGVG (position 764)],0.0047 ratio to standard peptide
24,YRSLLEDDDMGDLVD (also called Her2/neu.1005) [HER2/neu peptide YRSLLEDDDMGDLVD (position 1005)],0.063 ratio to standard peptide
25,TVPLPSETDGYVAPL (also called Her2/neu.1117) [HER2/neu peptide TVPLPSETDGYVAPL (position 1117)],-0.0025 ratio to standard peptide

# Target: T2, HLA-A*0101 (human)
# T2 construct: also called HLA-A1
# Assay: competition with 125I-labelled probe peptide for purified HLA-A*0101, gel filtration; relative to standard peptide
row,Binder,relative binding ratio (IC50 of standard peptide / IC50 of test peptide) [relative binding ratio]
1,"MTFGAKPY [HER2/neu peptide, position 916, 8 amino acids]",-0.0021
2,"LMTFGAKPY [HER2/neu peptide, position 915, 9 amino acids]",0.0011
3,"KCSKPCARVCY [HER2/neu peptide, position 333, 11 amino acids]",-0.0017
4,"HQSDVWSY [HER2/neu peptide, position 901, 8 amino acids]",-0.0021
5,"LQDIQEVQGY [HER2/neu peptide, position 74, 10 amino acids]",0.0015
6,"FSPAFDNLY [HER2/neu peptide, position 1213, 9 amino acids]",0.043
7,"SMPNPEGRY [HER2/neu peptide, position 281, 9 amino acids]",0.0028
8,"PTHDPSPLQRY (H is used here) [HER2/neu peptide, position 1102, 11 amino acids]",0.016
9,"SGAFGTVY [HER2/neu peptide, position 728, 8 amino acids]",-0.0021
10,"LEEITGYLY [HER2/neu peptide, position 403, 9 amino acids]",0.0057
11,"LGSGAFGTVY [HER2/neu peptide, position 726, 10 amino acids]",0.001
12,"PTAENPEY [HER2/neu peptide, position 1241, 8 amino acids]",0.003
13,"GSGAFGTVY [HER2/neu peptide, position 727, 9 amino acids]",0.0011
14,"QIAKGMSY [HER2/neu peptide, position 828, 8 amino acids]",-0.0021
15,"GASCVTACPY [HER2/neu peptide, position 292, 10 amino acids]",0.0012
16,"MGDLVDAEEY [HER2/neu peptide, position 1014, 10 amino acids]",0.012
17,"FGASCVTACPY [HER2/neu peptide, position 291, 11 amino acids]",0.01
18,"NKEILDEAY [HER2/neu peptide, position 764, 9 amino acids]",0.0017
19,"PSGVKPDLSY [HER2/neu peptide, position 601, 10 amino acids]",0.001

# Target: HLA-B*0702 (human)
# Assay: competition with 125I probe peptide, purified HLA
row,Binder,IC50 [nM]
1,CPAEQRASPL (native HER2/neu peptide from position 642) [Her2/neu.642],37
2,KPCARVCYGL (native HER2/neu peptide from position 336) [Her2/neu.336],149
3,SPGGLREL [Her2/neu.133 (8-mer)],100
4,SPGGLRELQL [Her2/neu.133 (10-mer)],95
